Results on three molecules are retold here after PMC9723621.

In data set [1] the target is ArdK from plasmid R388 containing a C-terminal His tag (ArdKHT) (plasmid R388). Nature of the data set: SEC; S75 gel filtration of the purified protein in solution. A general note: SEC sorts molecules by how far they enter the pores of the column.
A further data set concerns the target T1, ArdK (SeMet, ArdKHT) (plasmid R388 (expressed in E. coli …, UniProt Q6I6B7 1-107)).
T1 sequence: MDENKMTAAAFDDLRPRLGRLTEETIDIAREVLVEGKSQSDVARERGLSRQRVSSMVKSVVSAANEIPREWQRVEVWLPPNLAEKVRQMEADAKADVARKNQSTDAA
Put plainly: X-ray crystallography (2.8 A); crystal structures only; protein in 20 mM Tris pH 7.5, 150 mM NaCl, 1 mM DTT, 1 mM EDTA (gel filtration buffer); complex and crystallization conditions not in the material. The conditions noted are these: protein: recombinant; tags: C-terminal His; chain copies: 2; blunt.

A further data set concerns the target T2, ArdK (ArdKHT) (plasmid R388 (expressed in E. coli …, UniProt Q6I6B7 1-107)).
T2 sequence: T1 sequence
Nature of the data set: X-ray crystallography (2.6 A); crystal structures only; protein in 20 mM Tris pH 7.5, 150 mM NaCl, 1 mM DTT, 1 mM EDTA (gel filtration buffer); complex and crystallization conditions not in the material. To be noted: protein: recombinant; tags: C-terminal His; chain copies: 2; blunt.

One may read the stoichiometry N as a count of units in the complex or per binding partner. The molecule “ArdK from plasmid R388 containing a C-terminal His tag (ArdKHT) (natural protein)” came in with a stoichiometry N in data set [1] of 2.

B1: DR operator, Pssb (DR_1/DR_2) (dsDNA)
DNA 1: GTATTGACACCTATTGACA
DNA 2: TGTCAATAGGTGTCAATAC
As for B1, in the data set with ArdK (SeMet, ArdKHT), the binding result is “binds”.

B2: IR operator, n = 3 spacer (IR_1/IR_2) (dsDNA)
DNA 1: GTAATGTCAATATTTGACA
DNA 2: TGTCAAATATTGACATTAC
With B2, the binding result in the data set with ArdK (ArdKHT) is listed as “binds”.
